From paper doi:10.1101/2020.04.29.068361

Target: Meiothermus taiwanensis LonA (Lon AAA+ protease), wild type, full length (Meiothermus taiwanensis)
Assay: cryo-EM structure

## Meiothermus taiwanensis LonA (Lon AAA+ protease), wild type, full length (enzyme)
  stoichiometry N: 6
